Paper PMC12151148 (2024)
No end group written: not given here.

T1: Gαi3⋅GDP (human, UniProt P08754 1-354)
T1 chain: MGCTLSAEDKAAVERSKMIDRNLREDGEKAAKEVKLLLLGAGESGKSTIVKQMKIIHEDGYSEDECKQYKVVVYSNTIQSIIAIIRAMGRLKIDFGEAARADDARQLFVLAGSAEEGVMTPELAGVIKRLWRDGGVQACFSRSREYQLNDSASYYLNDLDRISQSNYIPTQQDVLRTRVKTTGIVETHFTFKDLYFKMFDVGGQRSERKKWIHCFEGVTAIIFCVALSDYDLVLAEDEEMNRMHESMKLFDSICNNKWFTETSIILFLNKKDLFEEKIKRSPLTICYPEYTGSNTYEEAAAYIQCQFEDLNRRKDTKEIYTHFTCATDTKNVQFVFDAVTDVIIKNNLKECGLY

T2: LGN (Homo sapiens, UniProt P81274)
T2 chain: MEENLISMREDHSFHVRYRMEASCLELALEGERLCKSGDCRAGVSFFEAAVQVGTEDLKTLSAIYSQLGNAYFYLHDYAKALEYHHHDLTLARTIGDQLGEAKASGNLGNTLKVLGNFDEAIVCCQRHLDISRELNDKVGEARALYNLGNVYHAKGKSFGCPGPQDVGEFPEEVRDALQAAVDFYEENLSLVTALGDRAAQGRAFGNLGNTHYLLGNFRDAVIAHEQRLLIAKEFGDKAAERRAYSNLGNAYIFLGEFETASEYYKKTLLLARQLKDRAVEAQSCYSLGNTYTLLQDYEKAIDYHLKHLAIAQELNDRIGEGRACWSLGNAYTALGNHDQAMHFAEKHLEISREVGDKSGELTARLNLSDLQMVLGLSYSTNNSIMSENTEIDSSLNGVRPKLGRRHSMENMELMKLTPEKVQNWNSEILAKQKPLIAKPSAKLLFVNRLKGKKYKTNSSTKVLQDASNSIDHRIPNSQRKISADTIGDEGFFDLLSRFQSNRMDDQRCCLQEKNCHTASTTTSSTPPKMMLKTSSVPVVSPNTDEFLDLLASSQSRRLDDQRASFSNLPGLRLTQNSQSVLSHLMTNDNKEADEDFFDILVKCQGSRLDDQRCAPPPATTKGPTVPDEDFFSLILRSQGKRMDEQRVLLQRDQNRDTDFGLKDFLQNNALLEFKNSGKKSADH

T3: AGS3 (Homo sapiens, UniProt Q86YR5)
T3 chain: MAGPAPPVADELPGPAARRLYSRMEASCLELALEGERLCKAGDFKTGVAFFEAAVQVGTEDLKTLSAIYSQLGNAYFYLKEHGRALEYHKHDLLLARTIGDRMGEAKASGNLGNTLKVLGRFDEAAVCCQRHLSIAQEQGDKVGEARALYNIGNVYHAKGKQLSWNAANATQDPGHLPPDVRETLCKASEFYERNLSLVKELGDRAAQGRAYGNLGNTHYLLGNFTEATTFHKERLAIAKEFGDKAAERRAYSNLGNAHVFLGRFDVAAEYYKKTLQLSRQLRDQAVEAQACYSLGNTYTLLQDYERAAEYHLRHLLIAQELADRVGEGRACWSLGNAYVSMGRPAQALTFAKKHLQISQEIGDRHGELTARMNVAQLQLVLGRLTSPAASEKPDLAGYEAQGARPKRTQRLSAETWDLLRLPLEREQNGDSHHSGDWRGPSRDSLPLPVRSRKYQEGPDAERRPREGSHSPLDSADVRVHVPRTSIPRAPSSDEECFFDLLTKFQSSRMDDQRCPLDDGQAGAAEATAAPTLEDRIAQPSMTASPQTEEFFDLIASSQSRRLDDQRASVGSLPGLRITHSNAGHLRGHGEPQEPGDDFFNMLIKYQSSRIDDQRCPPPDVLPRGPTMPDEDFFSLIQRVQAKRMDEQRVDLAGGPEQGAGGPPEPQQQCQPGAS

T4: FL-LGN-4E (mouse, UniProt Q8VDU0)
T4 sequence (Q8VDU0 whole entry, looked up): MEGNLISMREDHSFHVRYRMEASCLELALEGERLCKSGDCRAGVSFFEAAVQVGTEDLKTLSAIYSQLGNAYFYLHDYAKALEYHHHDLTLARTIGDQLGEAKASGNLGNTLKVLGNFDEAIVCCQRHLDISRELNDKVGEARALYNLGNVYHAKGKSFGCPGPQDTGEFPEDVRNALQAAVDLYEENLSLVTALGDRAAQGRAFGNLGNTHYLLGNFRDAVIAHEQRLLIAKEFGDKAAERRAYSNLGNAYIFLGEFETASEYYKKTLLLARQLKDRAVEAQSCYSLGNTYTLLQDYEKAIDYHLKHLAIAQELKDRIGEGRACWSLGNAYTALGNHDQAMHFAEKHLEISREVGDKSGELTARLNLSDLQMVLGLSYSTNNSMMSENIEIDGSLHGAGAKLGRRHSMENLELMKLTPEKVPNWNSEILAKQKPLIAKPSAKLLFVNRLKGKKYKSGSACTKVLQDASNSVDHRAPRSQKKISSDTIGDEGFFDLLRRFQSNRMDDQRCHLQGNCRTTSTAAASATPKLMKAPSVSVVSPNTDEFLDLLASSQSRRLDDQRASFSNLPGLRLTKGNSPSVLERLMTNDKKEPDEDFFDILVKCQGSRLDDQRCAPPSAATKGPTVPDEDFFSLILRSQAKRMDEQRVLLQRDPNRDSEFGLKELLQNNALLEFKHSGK

T5: LGN-TPR (1–409) (mouse)
T5 chain: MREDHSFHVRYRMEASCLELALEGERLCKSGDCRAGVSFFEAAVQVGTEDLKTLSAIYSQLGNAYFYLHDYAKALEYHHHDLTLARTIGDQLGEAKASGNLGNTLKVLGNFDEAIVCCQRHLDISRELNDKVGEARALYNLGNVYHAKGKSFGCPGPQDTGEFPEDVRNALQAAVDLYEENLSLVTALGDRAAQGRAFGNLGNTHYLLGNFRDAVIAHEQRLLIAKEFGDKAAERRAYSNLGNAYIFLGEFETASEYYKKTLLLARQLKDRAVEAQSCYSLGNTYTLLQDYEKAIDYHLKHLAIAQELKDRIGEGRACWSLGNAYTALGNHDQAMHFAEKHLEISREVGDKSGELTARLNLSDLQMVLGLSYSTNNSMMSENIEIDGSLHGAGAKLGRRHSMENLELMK

T6: AGS3-L (−23–405) (mouse)
T6 chain: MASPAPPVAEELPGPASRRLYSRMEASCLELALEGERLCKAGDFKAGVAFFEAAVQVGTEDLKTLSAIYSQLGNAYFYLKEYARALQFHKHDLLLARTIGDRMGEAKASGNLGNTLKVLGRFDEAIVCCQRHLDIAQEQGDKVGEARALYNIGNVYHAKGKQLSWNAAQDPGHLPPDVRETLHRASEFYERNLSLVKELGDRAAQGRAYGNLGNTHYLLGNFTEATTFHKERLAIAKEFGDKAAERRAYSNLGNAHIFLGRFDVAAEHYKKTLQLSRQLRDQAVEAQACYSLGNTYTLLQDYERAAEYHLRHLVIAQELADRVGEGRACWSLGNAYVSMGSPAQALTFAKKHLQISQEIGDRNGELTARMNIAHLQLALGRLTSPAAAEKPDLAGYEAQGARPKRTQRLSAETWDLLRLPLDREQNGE

T7: FL-AGS3-4E (mouse, UniProt Q6IR34)
T7 sequence (Q6IR34 whole entry, looked up): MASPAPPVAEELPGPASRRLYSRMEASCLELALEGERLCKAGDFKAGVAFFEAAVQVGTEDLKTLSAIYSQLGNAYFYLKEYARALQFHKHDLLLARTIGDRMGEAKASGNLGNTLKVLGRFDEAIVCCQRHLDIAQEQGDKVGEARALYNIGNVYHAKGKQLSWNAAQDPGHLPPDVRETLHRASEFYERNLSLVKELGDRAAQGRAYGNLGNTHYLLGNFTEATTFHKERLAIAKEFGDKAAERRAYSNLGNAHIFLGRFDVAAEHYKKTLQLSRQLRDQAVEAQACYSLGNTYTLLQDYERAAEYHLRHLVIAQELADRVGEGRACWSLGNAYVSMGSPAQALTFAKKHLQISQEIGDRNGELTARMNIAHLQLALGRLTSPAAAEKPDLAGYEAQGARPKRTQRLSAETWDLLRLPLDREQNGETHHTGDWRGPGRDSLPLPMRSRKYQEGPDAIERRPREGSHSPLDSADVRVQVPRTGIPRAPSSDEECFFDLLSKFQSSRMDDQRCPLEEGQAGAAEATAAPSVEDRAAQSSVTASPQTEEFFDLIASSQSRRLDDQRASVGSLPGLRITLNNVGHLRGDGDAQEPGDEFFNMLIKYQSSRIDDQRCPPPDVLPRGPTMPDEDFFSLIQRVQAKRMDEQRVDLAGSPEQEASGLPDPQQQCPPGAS


What was measured:
[1] = target: T1, Gαi3⋅GDP; experiment: ITC; GDP
[2] = target: T2, LGN
[3] = target: T3, AGS3
[4] = target: T1, Gαi3⋅GDP; experiment: ITC
[5] = target: T4, FL-LGN-4E; experiment: ITC
[6] = target: T5, LGN-TPR (1–409); experiment: ITC
[7] = target: T6, AGS3-L (−23–405); experiment: ITC
[8] = target: T7, FL-AGS3-4E; experiment: ITC

| Binder | Kd [1] [nM] | Kd [4] [nM] | also measured |
| --- | --- | --- | --- |
| AGS3-GL1234 (470–631) (domain or fragment) EECFFDLLSKFQSSRMDDQRCPLEEGQAGAAEATAAPSVEDRAAQSSVTASPQTEEFFDLIASSQSRRLDDQRASVGSLPGLRITLNNVGHLRGDGDAQEPGDEFFNMLIKYQSSRIDDQRCPPPDVLPRGPTMPDEDFFSLIQRVQAKRMDEQRVDLAGSP | 280 | – | – |
| LGN-GL1234 (483–650) (domain or fragment) DEGFFDLLRRFQSNRMDDQRCHLQGNCRTTSTAAASATPKLMKAPSVSVVSPNTDEFLDLLASSQSRRLDDQRASFSNLPGLRLTKGNSPSVLERLMTNDKKEPDEDFFDILVKCQGSRLDDQRCAPPSAATKGPTVPDEDFFSLILRSQAKRMDEQRVLLQRDPNRD | 260 | – | – |
| WGLWGVQESRRLCCAGHDRCKQALLQIGINMMALPGGRHLDSVTLPGQR | – | – | Kd [2]: 3920 nM; Kd [3]: 2270 nM |
| WGLWGVQESRRLCCAGHDRCKQALLQIGINMMALPGGRHLDSVTLPGQR (not fully specified; cysteine pairing not given here) | – | – | Kd [2]: 2620 nM; Kd [3]: 2290 nM |
| TEEFFDLIASSQSRRLDDQRASV (domain or fragment) [AGS3 GL2 motif] | 40 | 36.5 | – |
| NSFYMGTCQDEPEQLDDWNRIAELQQR (domain or fragment) [NuMA (1886–1912)] | – | – | Kd [5]: 200 nM; Kd [6]: 630 nM; Kd [7]: 240 nM; Kd [8]: 280 nM |
| DEDFFSLIQRVQAKRMDEQRVDL (domain or fragment) [AGS3 GL4 motif] | 330 | 320 | – |
| EECFFDLLSKFQSSRMDDQRCPL (domain or fragment) [AGS3 GL1 motif] | 300 | 300 | – |
| TDEFLDLLASSQSRRLDDQRASF (domain or fragment) [LGN GL2 motif] | 40 | 41.5 | – |
| DEDFFDILVKCQGSRLDDQRCAP (domain or fragment) [LGN GL3 motif] | 40 | – | – |
| GDEFFNMLIKYQSSRIDDQRCPP (domain or fragment) [AGS3 GL3 motif] | 260 | 260 | – |
| DEGFFDLLRRFQSNRMDDQRCHL (domain or fragment) [LGN GL1 motif] | 330 | 330 | – |
| DEDFFSLILRSQAKRMDEQRVLL (domain or fragment) [LGN GL4 motif] | 200 | – | – |
